Measurements published in article PMC3655063, “A UDP-X Diphosphatase from Streptococcus pneumoniae Hydrolyzes Precursors of Peptidoglycan Biosynthesis” (PLoS ONE, 2013).
Changes are numbered by the printed parent chain. Names and notes keep the numbering of the source.

What was measured:
[1] = substrate: CC(=O)N[C@H]1[C@@H](OP(=O)(O)OP(=O)(O)OC[C@H]2O[C@@H](n3ccc(=O)[nH]c3=O)[C@H](O)[C@@H]2O)O[C@H](CO)[C@@H](O)[C@@H]1O[C@H](C)C(=O)N[C@@H](C)C(=O)O; test: orthophosphate release with calf intestinal alkaline phosphatase coupling; Michaelis-Menten fit of initial rates; assay type: biochemical, Streptococcus pneumoniae; conditions: 50 mM Tris pH 8.4, 5 mM MgCl2, 100 nM enzyme, 37°C for the relative activity assay
Excerpt: (§1) orthophosphate release with calf intestinal alkaline phosphatase coupling; Michaelis-Menten fit of initial rates on UDP-X diphosphatase (UDP-Xase), SP_1669

[2] = substrate: O=c1ccn([C@@H]2O[C@H](CO[P@@](=O)(O)O[P@@](=O)(O)O[C@H]3O[C@H](CO)[C@@H](O)[C@H](O)[C@H]3O)[C@@H](O)[C@H]2O)c(=O)[nH]1; test: as above; assay type: biochemical, Streptococcus pneumoniae; conditions: 50 mM Tris pH 8.4, 5 mM MgCl2, 100 nM enzyme, 37°C for the relative activity assay
Excerpt: as §1

[3] = substrate: CC(=O)N[C@H]1[C@@H](OP(=O)(O)OP(=O)(O)OC[C@H]2O[C@@H](n3ccc(=O)[nH]c3=O)[C@H](O)[C@@H]2O)O[C@H](CO)[C@@H](O)[C@@H]1O[C@H](C)C(=O)O; test: as above; assay type: biochemical, Streptococcus pneumoniae; conditions: 50 mM Tris pH 8.4, 5 mM MgCl2, 100 nM enzyme, 37°C for the relative activity assay
Excerpt: as §1

[4] = target: the molecule itself; test: SEC; size-exclusion chromatography, data not shown
[5] = target: the molecule itself; test: SAXS; small-angle X-ray scattering of the mutants in solution, 4.5 and 6 mg/mL; ab initio envelopes fitted with the wild-type crystal dimer (PDB 4HFQ)

B1: UDP-X diphosphatase from Streptococcus pneumoniae TIGR4 (SP_1669 gene product), wild type (enzyme, UniProt A0A0H2URA0 1-203, looked up)
chain: MKTSDFVKYLQRMIAITDTGLTFTKDPFDRERYEDLRSLLSEMLNQASDLDSEEVAEVLKPTSAYATPLMDVRAWIVEDEKICLVRGQGEDSWALPGGFGEVGYSPTENILKEIEEETGFKAKVERLLAVFDTNRFQLQSKQYTKFVFGCKLLDGQFQENQEIADLQFFAIDQLPNLSEKRITKEQIELLWQVYQGHRGQYLD
notes: Nudix hydrolase UDP-X diphosphatase encoded by gene SP_1669 of Streptococcus pneumoniae TIGR4; the gene was amplified from genomic DNA with NdeI and BamHI sites at its start and end; the structure describes residues 1-203 (N-terminal domain 1-59, loop 60-68, C-terminal catalytic domain 69-203); No tag is named; also called UDP-Xase; source: E. coli BL21(DE3), pET-24a, purified (ammonium sulfate, …)
Km [1]: 1600 ± 300 µM | Vmax [1]: 28.3 µM/min | kcat [1]: 4.7 ± 0.2 s⁻¹ | kcat/Km [1]: 2900 ± 700 M⁻¹ s⁻¹ | Km [2]: 2900 ± 1100 µM | Vmax [2]: 7 µM/min | kcat [2]: 1.2 ± 0.1 s⁻¹ | kcat/Km [2]: 400 ± 200 M⁻¹ s⁻¹ | Km [3]: 3600 ± 400 µM | Vmax [3]: 17.7 µM/min | kcat [3]: 3 ± 0.1 s⁻¹ | kcat/Km [3]: 800 ± 100 M⁻¹ s⁻¹ | stoichiometry N [4]: 2

B2: UDP-X diphosphatase E113A mutant (enzyme)
chain: B1 chain with E113A
notes: UDP-X diphosphatase encoded by gene SP_1669 of Streptococcus pneumoniae TIGR4, with E113A made by site-directed mutagenesis of the wild-type construct; Same construct as m1 apart from the mutation; also called UDP-Xase E113A; source: E. coli, expressed as the wild type, purified (ammonium sulfate, Phenyl FF, Source Q, Sephacryl S200)
stoichiometry N [5]: 2

B3: UDP-X diphosphatase E162A mutant (enzyme)
chain: B1 chain with E162A
notes: UDP-X diphosphatase encoded by gene SP_1669 of Streptococcus pneumoniae TIGR4, with E162A made by site-directed mutagenesis of the wild-type construct; Same construct as m1 apart from the mutation; also called UDP-Xase E162A; source: E. coli, expressed as the wild type, purified (ammonium sulfate, Phenyl FF, Source Q, Sephacryl S200)
binding result [5]: binds
